Results on 8 molecules are retold here after patent US20030096741A1, “Enhanced mineral delivery” (priority 2000, published 2003).

Read-outs that look alike come from different tables or passages of the source. Square brackets hold non-standard residues; d marks the D form. Ends that are not written are not given here. pS = N[C@@H](COP(=O)(O)O)C(=O)O

For assay [1] the following is noted: 3P motif versus 2P motif; cited from earlier work.
The subject of assay [2] is bone specific gravity (femurs and tibias). Kind of assay: Bone specific gravity in growing rats fed a high sucrose diet. The class given is in vivo, Sprague-Dawley rats. The note with it: high sucrose diet for 5 weeks, 6.25 or 3.125 mmol/kg of diet, both groups. The source says: A high sucrose diet is associated with a decrease in bone specific gravity in growing rats (reflecting reduced calcium and phosphorous content). See J. Nutr. 128:1807-1810 (1998). This decrease in bone density is reversed or prevented by carbamoyl phosphate supplementation. Sprague-Dawley rats were fed a high sucrose diet for 5 weeks, supplemented with carbarnoyl phosphate at either 6.25 or 3.125 mmol/kg of diet. […] Thus, carbamoyl phosphate modifies the effect of a high sucrose diet on bone growth.

The conditions of assay [3]: cited from earlier work.
Where [4] appears, read: calcium binding, human β-CN variants by number of phosphorylated Ser residues, calculated from published binding studies, read-out: Average dissociation Constant.

“3P variant: Reynolds (WO 98/40406) 3P variant having the sequence motif SerP-SerP-SerP-Glu-Glu (SEQ ID NO: 1) ([pS][pS][pS]EE)”: in assay [1], the “calcium and phosphate binding strength relative to 2P synthetic homologues having the motif SerP-SerP-Glu-Glu” value was 2.5 times. As to `NC(=O)OP(=O)(O)O` [carbamoyl phosphate], in assay [2], the “specific gravities of femurs and tibias versus control rats receiving standard lab chow” value is “not significantly different”; the “specific gravities of femurs and tibias versus rats on the same diet without carbamoyl phosphate” value was “significantly higher”.

B1: 4P: Human β-CN variant with four SerP residues, all three Ser in the target sequence phosphorylated (protein, UniProt P05814 16-226, looked up)
Beta-casein: RETIESLSSSEESITEYKQKVEKVKHEDQQQGEDEHQDKIYPSFQPQPLIYPFVEPIPYGFLPQNILPLAQPAVVLPVPQPEIMEVPKAKDTVYTKGRVMPVLKSPTIPFFDPQIPKLTDLENLHLPLPLLQPLMQQVPQPIPQTLALPPQPLWSVPQPKVLPIPQQVVPYPQRAVPVQALLLNQELLLNPTHQIYPVTQPLAPVHNPISV
modifications: four phosphoserines
As to B1, the Kd in assay [3] (setting [4]) was 810 µM.

B2: 2P: Human β-CN variant with two SerP residues, only two of three Ser in the target sequence phosphorylated (protein, UniProt P05814 16-226, looked up)
Beta-casein: B1 Beta-casein
modifications: two phosphoserines
B2: the Kd in assay [3] (setting [4]) is 1210 µM.

B3: 3P: Human β-CN variant with three phosphorylated Ser residues (protein, UniProt P05814 16-226, looked up)
Beta-casein: B1 Beta-casein
modifications: three phosphoserines
notes: Human β-CN variant with three phosphorylated Ser residues
Take B3: in assay [3] (setting [4]), the Kd was 860 µM.

B4: 5P: Human β-CN variant with five phosphorylated Ser residues (protein, UniProt P05814 16-226, looked up)
Beta-casein: B1 Beta-casein
modifications: five phosphoserines
notes: Human β-CN variant with five phosphorylated Ser residues
Consider B4, for which the Kd in assay [3] (setting [4]) was 420 µM.

B5: 1P: Human β-CN variant with one phosphorylated Ser residue (protein, UniProt P05814 16-226, looked up)
Beta-casein: B1 Beta-casein
modifications: one phosphoserine
notes: Human β-CN variant with one phosphorylated Ser residue
As to B5, the Kd in assay [3] (setting [4]) is 1170 µM.

B6: bovine β-CN: Bovine beta-casein (protein, UniProt P02666 16-224, looked up)
Beta-casein: RELEELNVPGEIVESLSSSEESITRINKKIEKFQSEEQQQTEDELQDKIHPFAQTQSLVYPFPGPIPNSLPQNIPPLTQTPVVVPPFLQPEVMGVSKVKEAMAPKHKEMPFPKYPVEPFTESQSLTLTDVENLHLPLPLLQSWMHQPHQPLPPTVMFPPQSVLSLSQSKVLPVPQKAVPYPQRDMPIQAFLLYQEPVLGPVRGPFPIIV
Take B6: the Kd in assay [3] (bovine β-CN, read-out: calcium dissociation constant) was 650 µM.
